Article PMC8564726, “Heterodimerization of H3K9 histone methyltransferases G9a and GLP activates methyl reading and writing capabilities” (The Journal of Biological Chemistry, 2021)
Entries after “also recorded” stand apart in the source; their conditions may differ.

Legend:
[1] = biological target: unmethylated (H3K9me0) mononucleosomes; test: Fluorescence polarization binding to unmethylated mononucleosome; conditions: 147 bp 601 DNA 5ʹ fluorescein-labeled nucleosomes, 150 nM, pH 8, 100 mM KCl, 0.1% NP-40, 95% CI (μM): G9a 6.4-8.6, G9a-GLP 5.6-7.6, GLP-GLP 17.4-41.5, read-out: Kd, unmethylated (me0) mononucleosome
From the text: (§1) Histone proteins and nucleosomes were purified as described ([11], [26]) with modifications (see Supporting methods). For fluorescence polarization, nucleosomes were reconstituted with a 5ʹ fluoresceinated DNA template. H3K9 dimethylation was installed via Methyl-Lysine Analog (MLA) technology as described ([10], [26]). K9 MLA-monomethylated H3 was purchased from Active Motif. H3K27A was introduced by site-directed mutagenesis and purified as described ([26]).
(§2) Polarization assays with fluoresceinated H3_1–20 K9me1 or K9me2 peptides, 147 bp 601 DNA template, and core nucleosomes were performed and Kd values estimated as described ([11]) with the following modifications: The reaction buffer was 100 mM Tris pH 8, 100 mM KCl, 1 mM MgCl2, 20 μM ZnSO4, 10 mM BME, 0.1% NP-40. The concentration of peptides and nucleosomes was 150 nM and 200 nM for DNA. Polarization measurements were conducted on a Biotek Cytation 5 (peptide and nucleosome) or Molecular Devices Spectramax (DNA) plate reader with low-volume plates (Corning) in either 10 μl (peptide, nucleosome) or 40 μl (DNA) total volume.

H3_1–20 K9me1 peptide = test: Fluorescence polarization binding to H3K9me1 peptide; conditions: listed as G9a
Procedure: as §2

[2] = system: H3K9me1 monomethylated mononucleosomes; test: Fluorescence polarization binding to H3K9me1 mononucleosome
From the text: as §1, §2

H3_1–20 peptide = test: H3 tail peptide methylation kinetics (multiple turnover); type: biochemical; conditions: Michaelis–Menten, 9 μM 3H-SAM + 1000 μM cold SAM, 0.4 to 0.8 μM enzyme, pH 8, duplicates, 95% CI: G9a-G9a 24.6-34.6, GLP-GLP 9.5-15.5, G9a-GLP 26.0-34.5, G9aS-GLP 20.5-28.3, listed as G9a
Procedure: Substrate peptides or nucleosomes were mixed in a solution containing 9 μM tritiated S-Adenosyl Methionine (SAM, PerkinElmer) cofactor, and reactions were initiated upon addition of 0.4 to 0.8 μM enzyme. Peptide reactions were supplemented with 1000 μM cold SAM to fully saturate the SAM-binding pocket (Fig. S3). Due to signal limitations, nucleosome reactions were not supplemented with SAM (see Supporting methods). Reactions were run in 100 mM Tris pH 8, 100 mM KCl, 1 mM MgCl2, 20 μM ZnSO4, 10 mM BME and quenched with laemmli buffer. Peptide reactions were performed as described ([11]). Nucleosome methylation reactions were read out via autoradiography as described ([11]), except that proteins were separated on an 18% SDS PAGE gel.
All methylation reactions (except Fig. S4A) were performed under Multiple Turnover conditions ([25]). To determine initial rates, methylation time courses were traced at various concentrations of H3K9-containing substrate while keeping the concentration of SAM and enzyme constant. Plots of initial rate versus concentration H3K9 substrate measured in duplicate or triplicate were fit to V = Vmax∗[S]/(KM + [S]) using Prism software to extract KM and kcat (or kobs) values as well as the 95% confidence interval bounds of the fit. See Supporting methods for special considerations for nucleosome kinetics.

H3_1–20 K9me2 peptide = test: Fluorescence polarization binding to H3K9me2 peptide; conditions: listed as G9a
Procedure: as §2

[3] = system: H3K9me2 dimethylated mononucleosomes; test: Fluorescence polarization binding to H3K9me2 mononucleosome
From the text: as §1, §2

B1: G9a-G9a: homodimer of G9a truncated to the C-terminal ANK and SET domains (ANK-SET) (protein)
chain: MRGLPRGRGLMRARGRGRAAPTGGRGRGRGGAHRGRGRPRSLLSLPRAQASWAPQLPAGLTGPPVPCLPSQGEAPAEMGALLLEKEPRGAAERVHSSLGDTPQSEETLPKANPDSLEPAGPSSPASVTVTVGDEGADTPVGAASLIGDEPESLEGDGGRIVLGHATKSFPSSPSKGGACPSRAKMSMTGAGKSPPSVQSLAMRLLSMPGAQGAATAGPEPSPATTAAQEGQPKVHRARKTMSKPSNGQPPIPEKRPPEVQHFRMSDDMHLGKVTSDVAKRRKLNSGSLSEDLGSAGGSGDIILEKGEPRPLEEWETVVGDDFSLYYDAYSVDERVDSDSKSEVEALAEQLSEEEEEEEEEEEEEEEEEEEEEEEEEDEESGNQSDRSGSSGRRKAKKKWRKDSPWVKPSRKRRKREPPRAKEPRGVNGVGSSGPSEYMEVPLGSLELPSEGTLSPNHAGVSNDTSSLETERGFEELPLCSCRMEAPKIDRISERAGHKCMATESVDGELLGCNAAILKRETMRPSSRVALMVLCEAHRARMVKHHCCPGCGYFCTAGTFLECHPDFRVAHRFHKACVSQLNGMVFCPHCGEDASEAQEVTIPRGDGGTPPIGTAAPALPPLAHDAPGRADTSQPSARMRGHGEPRRPPCDPLADTIDSSGPSLTLPNGGCLSAVGLPPGPGREALEKALVIQESERRKKLRFHPRQLYLSVKQGELQKVILMLLDNLDPNFQSDQQSKRTPLHAAAQKGSVEICHVLLQAGANINAVDKQQRTPLMEAVVNNHLEVARYMVQLGGCVYSKEEDGSTCLHHAAKIGNLEMVSLLLSTGQVDVNAQDSGGWTPIIWAAEHKHIDVIRMLLTRGADVTLTDNEENICLHWASFTGSAAIAEVLLNAQCDLHAVNYHGDTPLHIAARESYHDCVLLFLSRGANPELRNKEGDTAWDLTPERSDVWFALQLNRKLRLGVGNRAVRTEKIICRDVARGYENVPIPCVNGVDGEPCPEDYKYISENCETSTMNIDRNITHLQHCTCVDDCSSSNCLCGQLSIRCWYDKDGRLLQEFNKIEPPLIFECNQACSCWRSCKNRVVQSGIKVRLQLYRTAKMGWGVRALQTIPQGTFICEYVGELISDAEADVREDDSYLFDLDNKDGEVYCIDARYYGNISRFINHLCDPNIIPVRVFMLHQDLRFPRIAFFSSRDIRTGEELGFDYGDRFWDIKSKYFTCQCGSEKCKHSAEAIALEQSRLARLDPHPELLPDLSSLPPINT
Kd [1]: 6 to 7 µM | affinity for H3K9me1 peptide, in words (H3_1–20 K9me1 peptide): no discernable affinity for me1 or me2 peptides; also recorded: does not recognize H3K9me1/2 peptides | binding to H3K9me1 nucleosomes, in words [2]: decreases compared with unmethylated nucleosomes | kcat, H3_1–20 peptide (H3_1–20 peptide): ~33 min⁻¹ | affinity for H3K9me2 peptide, in words (H3_1–20 K9me2 peptide): no discernable affinity for me1 or me2 peptides; also recorded: does not recognize H3K9me1/2 peptides | binding to H3K9me2 nucleosomes, in words [3]: decreases compared with unmethylated nucleosomes
